Data: article PMC8915965
Read-outs that look alike come from different tables or passages of the source.

B1: CD164: N104Q hCD164PM (protein)
parent chain: MSRLSRSLLWAATCLGVLCVLSADKNTTQHPNVTTLAPISNVTSAPVTSLPLVTTPAPETCEGRNSCVSCFNVSVVNTTCFWIECKDESYCSHNSTVSDCQVGNTTDFCSVSTATPVPTANSTAKPTVQPSPSTTSKTVTTSGTTNNTVTPTSQPVRKSTFDAASFIGGIVLVLGVQAVIFFLYKFCKSKERNYHTL
B2: CD164: N104Q (protein)
parent chain: B1 parent chain
B3: CD164: N72Q (protein)
parent chain: B1 parent chain
B4: CD164: N94Q (protein)
parent chain: B1 parent chain
B5: CD164: N77Q (protein)
parent chain: B1 parent chain
B6: rat CD164 (rCD164): T102N rCD164 (protein)
parent chain: MSGASRGLFWAATCLAALCLSAAQSNSSASPNVTDPPTTTSKVVPTTLTTTKPPETCESFNSCVSCVNATLTNNITCVWLDCHEANKTYCSSELVSNCTQKTSTDSCSVIPTTPVPTNSTAKPTTRPSSPTPTPSVVTSAGATNTTVTPTSQPERKSTFDAASFIGGIVLVLGVQAVIFFLYKFCKSKERNYHTL

Key:
[1] = expression in HeLaΔCD164 (SI Fig. S4); details: glycan lost; control: WT CD164

Protein	other: cell-cell membrane fusion (glycan lost)	other: support of virus infection (glycan lost)	expression_or_secretion [1]	other: support of virus infection (glycan gained)
B1	abolishes	–	–	–
B2	–	decreases	no change	–
B3	–	no change	no change	–
B4	–	no change	no change	–
B5	–	no change	no change	–
B6	–	–	–	increases
